The target in experiment [1] is T1, N-terminally FLAG-tagged mouse Ang2 (HEK293T conditioned medium) (mouse, UniProt O35608 19-496).
T1 construct: may be a nucleotide entry; also called mAng2; FLAG-mAng2
T1 sequence: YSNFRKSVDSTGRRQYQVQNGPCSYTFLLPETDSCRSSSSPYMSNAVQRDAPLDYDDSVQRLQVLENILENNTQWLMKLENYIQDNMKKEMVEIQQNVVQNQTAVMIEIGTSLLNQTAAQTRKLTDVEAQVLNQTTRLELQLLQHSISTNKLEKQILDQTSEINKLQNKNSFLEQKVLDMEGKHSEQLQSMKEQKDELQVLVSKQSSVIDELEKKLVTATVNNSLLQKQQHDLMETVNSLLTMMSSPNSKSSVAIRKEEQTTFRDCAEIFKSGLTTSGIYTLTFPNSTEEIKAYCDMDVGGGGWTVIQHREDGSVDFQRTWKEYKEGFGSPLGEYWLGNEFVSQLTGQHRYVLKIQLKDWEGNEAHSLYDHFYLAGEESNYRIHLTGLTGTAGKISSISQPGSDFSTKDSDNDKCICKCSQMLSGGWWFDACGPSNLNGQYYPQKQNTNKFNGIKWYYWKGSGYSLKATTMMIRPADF
Nature of the experiment: competition ELISA, FLAG-mAng2 on coated mTie2-Fc. How it is done: (§1) In brief, 2 μg/mL of recombinant mouse Tie2-Fc or cyno Tie2-Fc is coated overnight at 4° C. in a 96-well MaxiSorp plate (Nunc, Wiesbaden, Germany). Coated wells are blocked with a 1% casein solution.
For orientation: An ELISA detects its analyte on a solid surface through an enzyme-linked reagent.

Experiment [2] has as its target T1, N-terminally FLAG-tagged mouse Ang2 …. Nature of the experiment: competition ELISA, periplasmic extract, FLAG-mAng2 on mTie2/Fc. How it is done: In brief, human Tie2/Fc chimera (R&D Systems, Minneapolis, Minn., USA) is biotinylated using N-hydroxysulfosuccinimide ester of biotin (Thermo Fisher Scientific, Rockford, Ill., USA). […] To this mixture, the Acceptor beads and 0.3 nM biotinylated human Tie2/Fc chimeras are added and further incubated for 2 hours at room temperature. Finally, streptavidin conjugated Donor beads (Perkin Elmer, Waltham, Mass., US) are added and the mixture is incubated for an additional 2 hours at room temperature. Assay buffer is PBS+0.03% Tween-20+0.1% BSA. Fluorescence is measured using the Envision Multilabel Plate reader (Perkin Elmer, Waltham, Mass., USA) using an excitation wavelength of 680 nm and an emission wavelength of 520 nm. […] In brief, human or mouse Tie2/Fc chimera (R&D Systems, Minneapolis, Minn., USA) are immobilized at 2 μg/mL overnight at 4° C. in a 96-well MaxiSorp plate (Nunc, Wiesbaden, Germany). Wells are blocked with a 1% casein solution. […] This mixture is added to the Tie2/Fc coated well and incubated for 2 hours at room temperature. Residual binding of Ang is detected using HRP-conjugated anti-FLAG M2 antibody (Sigma, St Louis, Mo., USA).

Experiment [3] concerns the target T2, recombinant mouse Ang2-FLD (mouse, UniProt O35608 275-496, limits assumed).
T2 construct: domain: FLD
T2 sequence (looked up): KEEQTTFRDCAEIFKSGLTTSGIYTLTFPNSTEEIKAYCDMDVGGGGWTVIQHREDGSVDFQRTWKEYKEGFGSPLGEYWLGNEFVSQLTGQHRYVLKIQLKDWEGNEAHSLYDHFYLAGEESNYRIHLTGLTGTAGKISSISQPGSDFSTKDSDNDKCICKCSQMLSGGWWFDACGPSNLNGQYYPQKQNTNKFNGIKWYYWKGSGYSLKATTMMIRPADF
Briefly: SPR (Biacore T100), binder on CM5 chip, Ang2-FLD as analyte. How it is done: (§2) In brief, VHH and benchmark compounds are immobilized on a CM5 chip via amine coupling. […] Ang2-FLD species are allowed to associate for 2 min and to dissociate for 20 min at a flow rate of 45 μL/min. In between injections, the surfaces are regenerated with a 10 sec pulse of 25 mM NaOH and 60 sec stabilization period. Association/dissociation data are evaluated by fitting a 1:1 interaction model (Langmuir binding). The affinity constant KD is calculated from resulting association and dissociation rate constants kₐ and kd and are depicted in Table 8.
For orientation: In SPR one partner is held on a chip, and binding of the other changes the refractive index at the surface.

The target of experiment [4] is T3, recombinant cynomolgus Ang2-FLD (cynomolgus).
T3 construct: domain: FLD; also called cyno Ang2-FLD
The description is as above. As to the method:
as §2

For experiment [5], the target named is T4, recombinant human Ang2-FLD (human, UniProt O15123 275-496, limits assumed).
T4 construct: domain: FLD; not used
T4 sequence (looked up): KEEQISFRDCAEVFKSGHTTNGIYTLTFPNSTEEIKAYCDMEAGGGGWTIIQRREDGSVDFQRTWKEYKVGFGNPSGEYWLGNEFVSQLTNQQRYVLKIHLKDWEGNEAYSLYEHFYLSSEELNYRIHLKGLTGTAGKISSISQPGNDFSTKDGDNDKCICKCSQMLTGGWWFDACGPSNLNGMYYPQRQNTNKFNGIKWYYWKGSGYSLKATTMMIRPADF
The experiment is described as above. As to the method: as §2

Experiment [6] has as its target T1, N-terminally FLAG-tagged mouse Ang2 …. Briefly: competition ELISA, FLAG-mAng2 on coated mTie2-Fc. As to the method: as §1
The source holds these as a separate data set.

In experiment [7] the target is T5, N-terminally FLAG-tagged cynomolgus Ang2 (HEK293T conditioned medium) (cynomolgus, UniProt O15123 19-496 (human entry), limits assumed).
T5 construct: may be a nucleotide entry; also called cAng2; FLAG-cAng2
T5 chain: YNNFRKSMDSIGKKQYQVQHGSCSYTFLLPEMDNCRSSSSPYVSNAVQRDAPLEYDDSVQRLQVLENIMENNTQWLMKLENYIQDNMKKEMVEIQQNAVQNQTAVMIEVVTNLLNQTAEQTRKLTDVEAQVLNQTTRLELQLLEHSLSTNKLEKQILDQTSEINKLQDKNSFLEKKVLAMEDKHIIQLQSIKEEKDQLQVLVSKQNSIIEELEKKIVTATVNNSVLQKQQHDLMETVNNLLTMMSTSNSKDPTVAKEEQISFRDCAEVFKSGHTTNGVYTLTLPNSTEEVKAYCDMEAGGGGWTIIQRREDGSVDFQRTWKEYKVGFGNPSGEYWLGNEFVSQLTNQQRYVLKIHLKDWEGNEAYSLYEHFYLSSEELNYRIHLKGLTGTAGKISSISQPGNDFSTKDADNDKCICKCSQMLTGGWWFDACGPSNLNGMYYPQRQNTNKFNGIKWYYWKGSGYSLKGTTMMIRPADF
Briefly: competition ELISA, FLAG-cAng2 on coated cTie2-Fc. As to the method:
as §1

The target of experiment [8] is T6, FLAG-tagged cynomolgus Ang2 (cynomolgus, UniProt O15123 19-496 (human entry), limits assumed).
T6 construct: N-terminally FLAG-tagged, conditioned medium of HEK293T cells; also called cAng2; FLAG-cAng2
T6 chain: T5 chain
Nature of the experiment: competition ELISA: FLAG-cAng2 binding to coated cTie2-Fc. As to the method: as §1

For the next experiment, the target named is T7, FLAG-tagged mouse Ang2 (mouse, UniProt O35608 19-496).
T7 construct: N-terminally FLAG-tagged, conditioned medium of HEK293T cells; also called mAng2; FLAG-mAng2
T7 sequence: T1 sequence
Nature of the experiment: competition ELISA: FLAG-mAng2 binding to coated mTie2-Fc. As to the method:
as §1

Experiment [9] deals with T6, FLAG-tagged cynomolgus Ang2. Nature of the experiment: competition ELISA: FLAG-cAng2 binding to coated cTie2-Fc. How it is done: as §1

Numbering of substitutions follows the chain as printed. Like-named read-outs stand apart in the source and are kept apart here.

B1: VHH 15H04 (VHH)
VHH: EVQLVESGGGLVQAGGSLGLSCAASERTLPSYVMGWFRQAPGKELEFVAGISWSSGRTYYTDSVKGRFTISRDAAENTWYLQMNSLKPEDTAVYYCASNSVSEPTLHTWQYEASYDYWGQGTQVTVSS
notes: also called 015H04; not shown: C-terminal c-myc tag and His6 tag
A word on the IC50: it is the concentration needed to halve the response being measured. B1 showed a half-inhibitory concentration (IC50) in experiment [1] of 125 nM. Besides, the “% inh” value in experiment [2] came to 38%.

B2: VHH 25F01 (VHH)
VHH: EVQLVESGGGLVQAGGSLRLSCAVSGLPFDDYVIGWFRQAPGKEREGVSCISSSDGSTYYADSVKGRFTISSDNAKNTVYLQMNSLKPEDTAAYYCAAGGPRINIATMTCSHDEYEYDYWGQGTQVTVSS
notes: also called 025F01; not shown: C-terminal c-myc tag and His6 tag
Consider B2, for which the IC50 in [1] amounted to 13.3 nM. Further, the “% inh” value in experiment [2] stood at 42%.

B3: VHH 11B07 (VHH)
VHH: EVQLVESGGGLVQVGDSLRLSCAASGRTFSTYLMVGWFRQAPGKEREFAAGIWSSGDTAYADSVRGRFTISRDNAKNTVYLQMNSLKTEDTAVYYCAGSYDGNYYIPGFYKDWGQGTQVTVSS
notes: also called 011B07; not shown: C-terminal c-myc tag and His6 tag
Broadly, the Kd is the constant that tells how readily two partners part at equilibrium. A word on the koff: it is a measure of how fast the partners let go of each other. By kon is commonly meant the rate constant with which the complex forms. Consider B3, for which the Kd in [3] worked out at 29 nM; in experiment [4], 6.1 nM; in experiment [5] it was 6.7 nM. In addition, the koff amounted to 0.14 s⁻¹ in [3], 0.073 s⁻¹ in experiment [4] and 0.062 s⁻¹ in experiment [5]. Besides, the kon was found to be 4.8e+06 M⁻¹ s⁻¹ in experiment [3], 1.2e+07 M⁻¹ s⁻¹ in experiment [4] and 9.2e+06 M⁻¹ s⁻¹ in experiment [5]. For the same molecule, the IC50 was 21 nM in experiment [1], 39.7 nM in experiment [6] and 24.8 nM in experiment [7].

B4: VHH 8A11 (VHH)
VHH: EVQLVESGGGLVQAGGSLRLSCAASGRTFSSYAMGWFRQAPGKELEFVTAVSWSGGSTYYADSVKGRFTISRDSAKNTVYLQMNSLKPEDTAVYYCAAQSTIVEVTTLEAYDYWGQGTQVTVSS
notes: also called 008A11; not shown: C-terminal c-myc tag and His6 tag
As for B4, the IC50 in experiment [1] is 442 nM. In addition, the “% inh” value in [2] was 13%.

B5: VHH 32H10 (VHH)
VHH: EVQLVESGGGLVQAGGSLRLSCAASGFDFEDYDMGWFRQAPGKEREGVSYISSSDGSTYYTDSVKGRFTISSDNAKNTVYLQMNSLIPEDTAVYYCAARPWTRRVYGSSWLARSLDEYEYDYWGQGTQVTVSS
notes: also called 032H10; not shown: C-terminal c-myc tag and His6 tag
As to B5, the IC50 in [6] was determined as 13 nM. Further, the “% inh” value in [2] was determined as 58%.

B6: VHH 22G11 (VHH)
VHH: EVQLVESGGGLVQAGGSLRLSCAVSGFTFDDYAIGWFRQAPGKEREGVSCISRSDGSPYYADSVKGRFTISSDNAKGTVYLQMSSLKPEDTAVYYCAASWSGAYYSGTYYCDRLYEYDAWGQGTQVTVSS
notes: Tested as periplasmic extract; also called 022G11; not shown: C-terminal c-myc tag and His6 tag
On to B6, for which the “% inh” value in experiment [2] was 98%.

B7: VHH 00048 (VHH, not shown: small tags and cut ends)
VHH: EVQLVESGGGLVQAGGSLRLSCAASGFTLDDYAIGWFRQAPGKEREGVSSIRDSDGSTYYADSVKGRFTISSDNDKNTVYLQMNSLKPEDTAVYYCAAVPAGRLRFGEQWYPLYEYDAWGQGTLVTVSS
Take B7: the IC50 was found to be 1 nM in experiment [8] and 2.1 nM with FLAG-tagged mouse Ang2.

B8: VHH 00054 (VHH, not shown: small tags and cut ends)
VHH: B7 VHH with A14P, S54N, S72R, D75S, K87R
Take B8: the IC50 worked out at 11.7 nM in experiment [8] and 22.9 nM with FLAG-tagged mouse Ang2.

B9: VHH 00055 (VHH, not shown: small tags and cut ends)
VHH: B7 VHH with S54N, D55G
For the molecule B9, the IC50 was found to be 2 nM in experiment [8] and 4.6 nM in the experiment with FLAG-tagged mouse Ang2.

B10: VHH 00052 (VHH, not shown: small tags and cut ends)
VHH: B7 VHH with A14P, S54N, K87R
For B10, the IC50 in [8] came to 0.8 nM; with FLAG-tagged mouse Ang2, 2.1 nM.

B11: VHH 00937 (VHH, not shown: small tags and cut ends)
VHH: B7 VHH with A14P, A24V, F27I, S50A, D53E, D55G, D75S, K87R, F106Y, L113I
notes: Cycle 3 variant of 28D10 on the 00908 backbone
For the molecule B11, in [9], the IC50 amounted to 0.085 nM.

B12: VHH 00934 (VHH, not shown: small tags and cut ends)
VHH: B7 VHH with A14P, F27I, S50A, D53E, D55G, D75S, K87R, F106Y, L113I
notes: as for B11
In turn, B12 had an IC50 in experiment [9] of 0.071 nM.

B13: VHH 00053 (VHH, not shown: small tags and cut ends)
VHH: B7 VHH with A14P, S54N, S72R, K87R
For the molecule B13, the IC50 in experiment [8] turned out to be 13.8 nM; in the experiment with FLAG-tagged mouse Ang2 it was 36.7 nM.

B14: VHH 00936 (VHH, not shown: small tags and cut ends)
VHH: B7 VHH with A14P, A24V, F27I, S50A, S54N, D55G, D75S, K87R, F106Y, L113I
notes: as for B11
In experiment [9], B14 showed an IC50 of 0.06 nM.

B15: VHH 22C07 (VHH)
VHH: EVQLVESGGGLVQAGGSLRLSCAASGFTFDDYAIGWFRQAPGKEREGVSCISSSDGSTYYADSVKGRFTISSDNAKNTVYLQMNSLKPEDTAVYYCAADFIISSKRLCLDLFGSRGQGTQVTVSS
notes: also called 022C07; not shown: C-terminal c-myc tag and His6 tag
In [1], B15 gave an IC50 of 13.6 nM. Besides, the “% inh” value in [2] amounted to 82%.

For the origin of these results see patent publication US20230203146A1 (Boehringer Ingelheim, published 2023).
